Measured values taken from PMC3289634.
Values joined by “and” are separate entries in the source; they are usually repeats but may differ in a detail not shown here. Identical values can stand only once.

Assays:
Max-E47 protein chimera [1] = molecular target: Max-E47 protein chimera (UniProt P61244); assay: AUC; sedimentation equilibrium, 16.0°C, 14,000-35,000 rpm, Rayleigh interference; 20 mM Tris pH 8.0, 0.15 M NaCl, 10 mM 2-mercaptoethanol; loading concentrations 5-25; the constant is of dimer to monomers
Max-E47 protein chimera [2] = molecular target: Max-E47 protein chimera (UniProt P61244); assay: SEC; Superdex-75 column, against molecular weight markers
Max-E47 protein chimera [3] = molecular target: Max-E47 protein chimera (UniProt P61244); assay: AUC; sedimentation velocity, 20.0°C, 50,000 rpm, Rayleigh interference; loading concentrations 3-130 µM; 20 mM Tris pH 8.0, 0.1 M NaCl, 10 mM 2-mercaptoethanol, 5% (v/v) glycerol
[4] = molecular target: Max-E47YF cloning variant (Max-E47-V51Y/V59F) (UniProt P61244); assay: AUC; sedimentation equilibrium, 16.0°C, 14,000-35,000 rpm, Rayleigh interference; 20 mM Tris pH 8.0, 0.15 M NaCl, 10 mM 2-mercaptoethanol; loading concentrations 5-25; the constant is of dimer to monomers

stoichiometry N (Max-E47 protein chimera [1]) | stoichiometry N (Max-E47 protein chimera [2]) | stoichiometry N (Max-E47 protein chimera [3]) | Kd [4] [nM] | stoichiometry N [4] | Substance
2 and 4 | 2 | 2 and 4 |  |  | Max-E47 protein chimera (from UniProt P61244 22-36; P15923-2 349-400) (designed binder)
 |  |  | < 1 | 2 | Max-E47YF cloning variant (Max-E47-V51Y/V59F) (from UniProt P61244 22-36) (designed binder)
